From IntAct's records for PubMed 25096571 come the findings set out here.

The target in the test is FOXP3, Q9BZS1-1.
Sequence of FOXP3, Q9BZS1-1 (Q9BZS1 whole entry): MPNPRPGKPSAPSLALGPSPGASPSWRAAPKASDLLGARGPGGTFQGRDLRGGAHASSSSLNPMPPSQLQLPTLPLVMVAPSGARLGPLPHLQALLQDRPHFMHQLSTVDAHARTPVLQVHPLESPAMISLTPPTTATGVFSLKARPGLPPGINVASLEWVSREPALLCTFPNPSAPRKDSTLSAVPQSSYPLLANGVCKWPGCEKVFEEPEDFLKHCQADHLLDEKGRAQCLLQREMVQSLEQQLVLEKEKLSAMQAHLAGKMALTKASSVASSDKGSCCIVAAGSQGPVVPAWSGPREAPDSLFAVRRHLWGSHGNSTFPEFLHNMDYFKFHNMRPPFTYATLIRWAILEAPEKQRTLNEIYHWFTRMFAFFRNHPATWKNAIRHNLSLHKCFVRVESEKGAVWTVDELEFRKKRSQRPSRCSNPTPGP

As to “Serine/threonine-protein kinase pim-1 (Homo sapiens), P11309-1 K67M”, the “effect of a mutation on the interaction” value is listed as “disrupting interaction strength”.
